Test results as given in the Immune Epitope Database (IEDB).

What was measured:
HLA-B*45:06 = experiment: IEDB peptide-MHC binding, purified MHC/competitive/fluorescence; filed as Kd, often an IC50 or EC50 that approximates it; ≥ and ≤ were set here for values at or beyond the usual limits of such assays; details: source organism: Shigella flexneri 5 str. 8401
HLA-B*40:13 = experiment: as above; details: source organism: Shigella flexneri 5 str. 8401
HLA-A*32:15 = experiment: as above; details: source organism: Shigella flexneri 5 str. 8401
HLA-B*83:01 = experiment: as above; details: source organism: Shigella flexneri 5 str. 8401
HLA-A*68:23 = experiment: as above; details: source organism: Shigella flexneri 5 str. 8401
HLA-B*15:42 = experiment: as above; details: source organism: Shigella flexneri 5 str. 8401
HLA-B*40:01 [1] = experiment: as above; details: source organism: Shigella flexneri 5 str. 8401
HLA-B*38:01 = experiment: IEDB peptide-MHC binding, purified MHC/direct/fluorescence; filed as Kd, often an IC50 or EC50 that approximates it; ≥ and ≤ were set here for values at or beyond the usual limits of such assays; details: source organism: Salmonella enterica subsp. enterica serovar Typhimurium str. LT2
HLA-A*26:01 = experiment: as above; details: source organism: Salmonella enterica subsp. enterica serovar Typhimurium str. LT2
HLA-B*57:01 = experiment: as above; details: source organism: Salmonella enterica
HLA-A*11:01 = experiment: as above; details: source organism: Salmonella enterica
HLA-B*27:05 = experiment: as above; details: source organism: Salmonella enterica
HLA-A*02:01 = experiment: as above; details: source organism: Salmonella enterica
HLA-B*58:01 = experiment: as above; details: source organism: Salmonella enterica
HLA-B*15:17 = experiment: as above; details: source organism: Salmonella enterica
HLA-B*48:01 = experiment: as above; details: source organism: Salmonella enterica
HLA-A*03:01 = experiment: as above; details: source organism: Salmonella enterica
HLA-A*01:01 [2] = experiment: as above; details: source organism: Salmonella enterica
HLA-B*08:02 = experiment: as above; details: source organism: Salmonella enterica subsp. enterica serovar Typhimurium str. LT2
HLA-B*15:09 = experiment: as above; details: source organism: Salmonella enterica subsp. enterica serovar Typhimurium str. LT2
HLA-A*26:02 = experiment: as above; details: source organism: Salmonella enterica subsp. enterica serovar Typhimurium str. LT2
HLA-A*31:01 = experiment: as above; details: source organism: Salmonella enterica
HLA-B*46:01 = experiment: as above; details: source organism: Salmonella enterica
HLA-B*40:01 [3] = experiment: as above; details: source organism: Salmonella enterica
HLA-B*15:01 = experiment: IEDB peptide-MHC binding, purified MHC/competitive/fluorescence; filed as Kd, often an IC50 or EC50 that approximates it; ≥ and ≤ were set here for values at or beyond the usual limits of such assays; details: source organism: Salmonella enterica subsp. enterica serovar Typhi
HLA-A*69:01 = experiment: as above; details: source organism: Salmonella enterica subsp. enterica serovar Typhi
HLA-B*08:01 = experiment: as above; details: source organism: Salmonella enterica subsp. enterica serovar Typhi
HLA-C*07:02 = experiment: IEDB peptide-MHC binding, purified MHC/direct/fluorescence; filed as Kd, often an IC50 or EC50 that approximates it; ≥ and ≤ were set here for values at or beyond the usual limits of such assays; details: source organism: Homo sapiens
HLA-A*80:01 = experiment: IEDB peptide-MHC binding, purified MHC/competitive/fluorescence; filed as Kd, often an IC50 or EC50 that approximates it; ≥ and ≤ were set here for values at or beyond the usual limits of such assays; details: source organism: Homo sapiens
HLA-A*01:01 [4] = experiment: as above; details: source organism: Homo sapiens
HLA-A*29:02 = experiment: as above; details: source organism: Homo sapiens

In the case of HEWKIPLLI, the Kd (HLA-B*45:06) is reported as ≥ 5 µM, the Kd (HLA-B*40:13) is reported as 0.0109 µM and the Kd (HLA-A*32:15) is reported as 2.61 µM. The Kd (HLA-B*83:01) was 10.5 µM, the Kd (HLA-A*68:23) was 0.278 µM and the Kd (HLA-B*15:42) was ≥ 5 µM. For the same sequence, the Kd (HLA-B*40:01 [1]) was 0.0097 µM.

In the case of EIIFYHPTF, the Kd (HLA-B*38:01) is reported as ≥ 20 µM, the Kd (HLA-A*26:01) is reported as 0.803 µM and the Kd (HLA-B*57:01) is reported as ≥ 20 µM. The Kd (HLA-A*11:01) was ≥ 20 µM, the Kd (HLA-B*27:05) was ≥ 20 µM and the Kd (HLA-A*02:01) was ≥ 20 µM. The Kd (HLA-B*58:01) was ≥ 20 µM, the Kd (HLA-B*15:17) was 0.107 µM and the Kd (HLA-B*48:01) was ≥ 20 µM. The Kd (HLA-A*03:01) was ≥ 20 µM, the Kd (HLA-A*01:01 [2]) was ≥ 20 µM and the Kd (HLA-B*08:02) was ≥ 20 µM. For the same sequence, the Kd (HLA-B*15:09) was ≥ 20 µM, the Kd (HLA-A*26:02) was ≤ 0.001 µM and the Kd (HLA-A*31:01) was ≥ 20 µM. For the same sequence, the Kd (HLA-B*46:01) was ≥ 20 µM, the Kd (HLA-B*40:01 [3]) was ≥ 20 µM and the Kd (HLA-B*15:01) was ≥ 20 µM. The Kd (HLA-A*69:01) was ≥ 20 µM and the Kd (HLA-B*08:01) was ≥ 20 µM.

YYSNKAYQY was tested, and the Kd (HLA-C*07:02) was 0.15 µM, the Kd (HLA-A*80:01) was 0.373 µM and the Kd (HLA-A*01:01 [4]) was ≥ 20 µM. The Kd (HLA-A*29:02) was ≤ 0.0001 µM.
